Source: patent US20100323905A1 (published 2010)

T1: recombinant full-length human PABPN1 (nuclear poly(A)-binding protein 1), T7-tagged and His-tagged, produced … (human, UniProt Q86U42 1-306)
T1 construct: also called recombinant PABPN1; T7-tagged PABPN1; not shown: T7 Tag and His Tag from vector pET28a
T1 sequence (looked up): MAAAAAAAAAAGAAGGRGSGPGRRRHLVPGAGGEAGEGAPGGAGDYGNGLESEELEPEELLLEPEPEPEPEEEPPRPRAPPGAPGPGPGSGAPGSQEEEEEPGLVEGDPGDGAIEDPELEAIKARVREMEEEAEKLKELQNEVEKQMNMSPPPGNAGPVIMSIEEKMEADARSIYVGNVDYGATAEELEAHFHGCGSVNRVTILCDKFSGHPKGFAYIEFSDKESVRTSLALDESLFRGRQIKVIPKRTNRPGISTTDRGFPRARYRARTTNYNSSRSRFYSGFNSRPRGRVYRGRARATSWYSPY

T2: native PABPN1 purified from bovine calf thymus (bovine, UniProt Q28165 2-306)
T2 sequence (looked up): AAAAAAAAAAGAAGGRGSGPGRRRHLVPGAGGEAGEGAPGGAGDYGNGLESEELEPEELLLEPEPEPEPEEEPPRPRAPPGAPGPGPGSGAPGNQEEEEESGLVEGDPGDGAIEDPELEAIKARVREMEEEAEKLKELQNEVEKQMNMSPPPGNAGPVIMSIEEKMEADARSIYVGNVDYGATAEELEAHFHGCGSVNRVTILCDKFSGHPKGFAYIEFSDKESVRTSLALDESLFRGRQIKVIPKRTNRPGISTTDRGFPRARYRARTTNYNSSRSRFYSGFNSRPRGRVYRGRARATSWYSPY

T3: PABPN1 point mutant V126S (UniProt Q86U42 1-306, limits assumed)
T3 sequence (looked up): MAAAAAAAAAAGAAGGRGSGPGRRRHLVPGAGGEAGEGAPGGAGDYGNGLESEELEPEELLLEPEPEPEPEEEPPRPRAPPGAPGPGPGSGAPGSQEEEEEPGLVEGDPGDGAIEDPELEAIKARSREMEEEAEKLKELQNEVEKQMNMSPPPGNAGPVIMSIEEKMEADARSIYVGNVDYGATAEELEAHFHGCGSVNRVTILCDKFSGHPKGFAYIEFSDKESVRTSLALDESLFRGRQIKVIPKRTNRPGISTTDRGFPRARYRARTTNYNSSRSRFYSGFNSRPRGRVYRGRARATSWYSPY

T4: PABPN1 point mutant M129A (UniProt Q86U42 1-306, limits assumed)
T4 sequence (looked up): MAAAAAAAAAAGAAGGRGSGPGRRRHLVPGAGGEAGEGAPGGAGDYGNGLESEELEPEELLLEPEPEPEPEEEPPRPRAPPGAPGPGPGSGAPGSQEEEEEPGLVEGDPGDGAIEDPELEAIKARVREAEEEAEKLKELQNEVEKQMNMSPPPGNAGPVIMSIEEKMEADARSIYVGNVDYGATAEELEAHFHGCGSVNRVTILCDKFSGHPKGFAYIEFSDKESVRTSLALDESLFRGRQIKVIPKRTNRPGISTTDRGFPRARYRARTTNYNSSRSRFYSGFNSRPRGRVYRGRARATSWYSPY


What was measured:
[1] = target: T1, recombinant full-length human PABPN1 …; experiment: BIAcore affinity measurement (SPR)
[2] = target: T1, recombinant full-length human PABPN1 …; experiment: BIAcore affinity measurement (SPR, CM5 chip)
Protocol: Affinities were calculated using Biacore evaluation software.

[3] = target: T2, native PABPN1 purified from bovine calf …; experiment: affinity measurement (Biacore)
[4] = target: T3, PABPN1 point mutant V126S; experiment: Western blot of purified mutant proteins
Description: (§1) Proteins were separated by SDS-PAGE followed by Coomassie Brilliant Blue staining or transfer to PVDF Western blotting membranes (Roche Diagnostics, Almere, The Netherlands) using the Mini-PROTEAN 8 system for gel electrophoresis and the Mini Trans-Blot Cell for blotting of the proteins (Bio-Rad Laboratories, Hercules, Calif., USA). […] For phage detection a 10,000-fold dilution of a HRP-conjugated monoclonal antibody which binds to the phage coat protein was used (Amersham Biosciences, Uppsala, Sweden).

[5] = target: T4, PABPN1 point mutant M129A; experiment: Western blot of purified mutant proteins
Description: as §1

[6] = target: T1, recombinant full-length human PABPN1 …; experiment: BIAcore affinity measurement (SPR); remark: listed apart in the source
[7] = target: T2, native PABPN1 purified from bovine calf …; experiment: sandwich ELISA: 3F5 coated, native PABPN1 captured
beta amyloid Aβ 1-42 = target: T5, beta amyloid Aβ 1-42 (UniProt P05067 672-713); experiment: ELISA
T5 construct: domain: Aβ 1-42; The numbers 1-42 count on the Aβ peptide, not on the precursor; In immunohistochemistry the target is amyloid deposited in human brain sections; also called amyloid b-42; Amyloid-b-42
T5 sequence (P05067 672-713 limits assumed): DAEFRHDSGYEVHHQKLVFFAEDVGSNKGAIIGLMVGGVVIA

| Kd [1] | Kd [6] | Binder | further results |
| --- | --- | --- | --- |
| 14 nM |  | VHH 3E9 (VHH) VHH: QVQLQESGGGLVQPGGSLRLSCVASGFTFSDNAMSWVRRAPGKGLEWVSAINRAGDSARYADSVKGRFTISRDNAKNTLYLQMNSLKPEDTAVYYCTNGGNYRGQGTQVTVSA |  |
|  |  | VHH 3F5 (VHH, also called anti-PABPN1 VHH (3F5)) VHH: EVQLVESGGGLVQAGGSLRLSCAASGRTFSGYGMGWFRQAPGKEREFVAAISWRGGNTYYADSVKGRFTISRDNAKNTVWLQMNSLKPEDTAVYYCSGFVRTRDDPSRIRNYWGQGTQVTVST | Kd [2]: 5 nM; Kd [3]: 5 nM; binding result [4]: no binding; binding result [5]: no binding |
| 11 nM | 11 nM | VHH 29 (VHH, also called antibody fragment 29) VHH: QVQLVESGGGLVQAGDSLRLSCAASGRTFSSYVMGWFRQAPGKEREFVAAVTGGGISTYYADSVKGRFTISRDNAKNTVYLQMNSLTPEDTAVYYCYARRLNSWGQGTQVTISS | binding result [7]: binds |
| 57 nM | 57 nM | VHH 08 (VHH, Alignment gaps removed) VHH: EVQLVESGGGLVQPGGSLRLSCVASGRTSRISRMAWFRQVPGNERELVATMSSSGITSYAGSVKGRFTISRDNAKNTVDLQMNSLKPEDTAVYYCKYSSRWNIYWGQGTQVTVSS |  |
| 8 nM |  | VHH 3A9 (VHH) VHH: QVQLVESGGDLVQAGGSLRLSCAASGHTFDSYGMGWFRQRPGKGREFVAAITMIGGSTHYADSAKGRFTISRDNTKNTISLQMNSLKPEDTAVYYCHAFSRSRFEGYWGQGIQVTVSS |  |
| 7 nM | 7 nM | VHH 18 (VHH, Alignment gaps removed) VHH: AVQLVESGGGLVQAGGSLRLSCAASGSIVSLATMGWYRQAPGNQRELVATMSSSGITSYAGSVKGRFTYSRDNAKNTVDLQMNSLKPEDTAVYYCKYSSRWNIYWGQGTLVTVSS |  |
|  |  | VHH 11D (VHH, Selected against amyloid b-42) VHH: AVQLVESGGGLVQAGGSLRLSCAASQRTFSSYVMGWFRQAPGKEREFVAAIGWSGGSTAYADSVKGRFTISRDNARNTVYLQMNSLKPEDTAVYYCASAPTRWVPRDSRFYDRWGQGTRVTVSS | binding result (beta amyloid Aβ 1-42): binds |
|  |  | VHH 3A (VHH, Selected against Aβ 1-42; 15N-labeled in the NMR titration; also called anti-Aβ1-42 VHH 3A) VHH: AVQLVESGGGLVRDGGSLRLSCAASGRTFSSYVMGWFRQAPGKEREFVAAIGWSGGSTAYADSVKGRFTISRDNARNTVYLQMNSLKPEDTAVYYCASAPTRWVPRDSRFYDRWGQGTRVTVSS | binding result (beta amyloid Aβ 1-42): binds |
